B1: EF-hand domain-containing protein 1 (Homo sapiens), Q5JVL4 (parent)
chain: MVSNPVHGLPFLPGTSFKDSTKTAFHRSQTLSYRNGYAIVRRPTVGIGGDRLQFNQLSQAELDELASKAPVLTYGQPKQAPPADFIPAHVAFDKKVLKFDAYFQEDVPMSTEEQYRIRQVNIYYYLEDDSMSVIEPVVENSGILQGKLIKRQRLAKNDRGDHYHWKDLNRGINITIYGKTFRVVDCDQFTQVFLESQGIELNPPEKMALDPYTELRKQPLRKYVTPSDFDQLKQFLTFDKQVLRFYAIWDDTDSMYGECRTYIIHYYLMDDTVEIREVHERNDGRDPFPLLMNRQRVPKVLVENAKNFPQCVLEISDQEVLEWYTAKDFIVGKSLTILGRTFFIYDCDPFTRRYYKEKFGITDLPRIDVSKREPPPVKQELPPYNGFGLVEDSAQNCFALIPKAPKKDVIKMLVNDNKVLRYLAVLESPIPEDKDRRFVFSYFLATDMISIFEPPVRNSGIIGGKYLGRTKVVKPYSTVDNPVYYGPSDFFIGAVIEVFGHRFIILDTDEYVLKYMESNAAQYSPEALASIQNHVRKREAPAPEAESKQTEKDPGVQELEALIDTIQKQLKDHSCKDNIREAFQIYDKEASGYVDRDMFFKICESLNVPVDDSLVKELIRMCSHGEGKINYYNFVRAFSN
partner: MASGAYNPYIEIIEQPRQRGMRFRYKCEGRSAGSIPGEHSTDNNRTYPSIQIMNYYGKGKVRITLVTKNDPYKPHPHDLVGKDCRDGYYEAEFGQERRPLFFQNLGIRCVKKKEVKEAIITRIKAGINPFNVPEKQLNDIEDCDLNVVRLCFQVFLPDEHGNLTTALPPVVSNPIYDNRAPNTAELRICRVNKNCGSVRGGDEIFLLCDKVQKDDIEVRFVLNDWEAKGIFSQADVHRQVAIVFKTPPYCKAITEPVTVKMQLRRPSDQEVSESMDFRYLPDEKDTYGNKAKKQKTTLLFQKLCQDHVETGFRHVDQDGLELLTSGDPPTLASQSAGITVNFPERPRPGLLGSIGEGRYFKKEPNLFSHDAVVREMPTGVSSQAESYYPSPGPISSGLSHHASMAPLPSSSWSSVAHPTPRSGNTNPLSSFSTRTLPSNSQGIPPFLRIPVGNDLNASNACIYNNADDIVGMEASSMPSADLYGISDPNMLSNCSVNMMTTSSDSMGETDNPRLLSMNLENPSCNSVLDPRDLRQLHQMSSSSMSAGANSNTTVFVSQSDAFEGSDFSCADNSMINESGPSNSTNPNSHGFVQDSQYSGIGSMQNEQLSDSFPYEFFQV
B2: Chorion-specific transcription factor GCMb (Homo sapiens), O75603 (parent)
chain: MPAAAVQEAVGVCSYGMQLSWDINDPQMPQELALFDQFREWPDGYVRFIYSSDEKKAQRHLSGWAMRNTNNHNGHILKKSCLGVVVCTQACTLPDGSRLQLRPAICDKARLKQQKKACPNCHSALELIPCRGHSGYPVTNFWRLDGNAIFFQAKGVHDHPRPESKSETEARRSAIKRQMASFYQPQKKRIRESEAEENQDSSGHFSNIPPLENPEDFDIVTETSFPIPGQPCPSFPKSDVYKATCDLATFQGDKMPPFQKYSSPRIYLPRPPCSYELANPGYTNSSPYPTLYKDSTSIPNDTDWVHLNTLQCNVNSYSSYERSFDFTNKQHGWKPALGKPSLVERTNHGQFQAMATRPYYNPELPCRYLTTPPPGAPALQTVITTTTKVSYQAYQPPAMKYSDSVREVKSLSSCNYAPEDTGMSVYPEPWGPPVTVTRAASPSGPPPMKIAGDCRAIRPTVAIPHEPVSSRTDEAETWDVCLSGLGSAVSYSDRVGPFFTYNNEDF
partner: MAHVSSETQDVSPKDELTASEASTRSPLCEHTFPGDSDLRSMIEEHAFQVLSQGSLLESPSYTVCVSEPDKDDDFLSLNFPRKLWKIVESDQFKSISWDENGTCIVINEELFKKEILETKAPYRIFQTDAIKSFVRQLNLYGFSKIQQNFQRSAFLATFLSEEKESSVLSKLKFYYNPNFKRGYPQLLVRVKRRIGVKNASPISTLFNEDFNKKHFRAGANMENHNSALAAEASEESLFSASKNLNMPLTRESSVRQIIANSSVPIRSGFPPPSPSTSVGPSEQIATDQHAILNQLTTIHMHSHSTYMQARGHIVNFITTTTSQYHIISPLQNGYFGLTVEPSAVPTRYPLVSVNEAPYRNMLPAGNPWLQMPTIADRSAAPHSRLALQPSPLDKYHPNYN
B3: Keratin, type II cytoskeletal 2 epidermal (Homo sapiens), P35908 (parent)
chain: MSCQISCKSRGRGGGGGGFRGFSSGSAVVSGGSRRSTSSFSCLSRHGGGGGGFGGGGFGSRSLVGLGGTKSISISVAGGGGGFGAAGGFGGRGGGFGGGSSFGGGSGFSGGGFGGGGFGGGRFGGFGGPGGVGGLGGPGGFGPGGYPGGIHEVSVNQSLLQPLNVKVDPEIQNVKAQEREQIKTLNNKFASFIDKVRFLEQQNQVLQTKWELLQQMNVGTRPINLEPIFQGYIDSLKRYLDGLTAERTSQNSELNNMQDLVEDYKKKYEDEINKRTAAENDFVTLKKDVDNAYMIKVELQSKVDLLNQEIEFLKVLYDAEISQIHQSVTDTNVILSMDNSRNLDLDSIIAEVKAQYEEIAQRSKEEAEALYHSKYEELQVTVGRHGDSLKEIKIEISELNRVIQRLQGEIAHVKKQCKNVQDAIADAEQRGEHALKDARNKLNDLEEALQQAKEDLARLLRDYQELMNVKLALDVEIATYRKLLEGEECRMSGDLSSNVTVSVTSSTISSNVASKAAFGGSGGRGSSSGGGYSSGSSSYGSGGRQSGSRGGSGGGGSISGGGYGSGGGSGGRYGSGGGSKGGSISGGGYGSGGGKHSSGGGSRGGSSSGGGYGSGGGGSSSVKGSSGEAFGSSVTFSFR
partner: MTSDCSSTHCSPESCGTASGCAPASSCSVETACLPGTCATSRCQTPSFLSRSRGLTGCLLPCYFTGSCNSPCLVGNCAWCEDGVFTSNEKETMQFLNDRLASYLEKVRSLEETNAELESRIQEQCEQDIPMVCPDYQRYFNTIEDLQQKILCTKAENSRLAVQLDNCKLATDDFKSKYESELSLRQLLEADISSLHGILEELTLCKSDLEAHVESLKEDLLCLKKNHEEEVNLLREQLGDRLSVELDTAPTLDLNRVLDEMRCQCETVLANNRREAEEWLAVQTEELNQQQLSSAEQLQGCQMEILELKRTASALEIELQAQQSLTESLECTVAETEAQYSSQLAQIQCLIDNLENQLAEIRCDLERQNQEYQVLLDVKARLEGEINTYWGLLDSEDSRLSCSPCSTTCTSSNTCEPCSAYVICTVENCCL
B4: EF-hand domain-containing protein 1 (Homo sapiens), Q5JVL4 (parent)
chain: B1 chain
partner: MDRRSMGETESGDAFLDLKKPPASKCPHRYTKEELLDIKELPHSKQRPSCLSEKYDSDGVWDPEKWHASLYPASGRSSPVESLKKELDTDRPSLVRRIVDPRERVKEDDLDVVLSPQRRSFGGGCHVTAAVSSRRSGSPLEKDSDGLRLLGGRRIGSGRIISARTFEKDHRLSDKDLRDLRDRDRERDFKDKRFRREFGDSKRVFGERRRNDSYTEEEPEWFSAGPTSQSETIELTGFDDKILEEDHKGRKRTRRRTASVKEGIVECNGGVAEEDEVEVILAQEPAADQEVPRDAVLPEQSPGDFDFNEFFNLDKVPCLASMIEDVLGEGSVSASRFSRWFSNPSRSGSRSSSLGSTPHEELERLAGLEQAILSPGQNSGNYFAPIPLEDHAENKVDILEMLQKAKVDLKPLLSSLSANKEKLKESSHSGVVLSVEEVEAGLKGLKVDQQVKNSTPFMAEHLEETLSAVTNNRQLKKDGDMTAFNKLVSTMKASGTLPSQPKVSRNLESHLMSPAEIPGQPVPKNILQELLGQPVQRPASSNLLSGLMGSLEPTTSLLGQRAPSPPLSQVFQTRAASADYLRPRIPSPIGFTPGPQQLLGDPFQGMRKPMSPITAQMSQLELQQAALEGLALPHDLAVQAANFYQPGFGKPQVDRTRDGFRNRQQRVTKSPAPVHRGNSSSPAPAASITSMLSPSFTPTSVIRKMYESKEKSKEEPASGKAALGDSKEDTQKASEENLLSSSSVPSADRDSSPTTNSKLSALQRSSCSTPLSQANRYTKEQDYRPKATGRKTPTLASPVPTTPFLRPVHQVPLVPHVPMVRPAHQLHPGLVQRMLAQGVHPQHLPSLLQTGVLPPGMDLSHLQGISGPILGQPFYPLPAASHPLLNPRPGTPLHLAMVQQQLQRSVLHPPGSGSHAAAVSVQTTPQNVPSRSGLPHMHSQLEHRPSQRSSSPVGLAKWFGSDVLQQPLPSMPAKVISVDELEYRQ

Variants of: B1
Settings: with rel_human REL

effect of a mutation on the interaction | Variant
disrupting interaction | R221H

Variants of: B1
Settings: with rel_human REL
Remark: another data set of the same source

effect of a mutation on the interaction | Variant
disrupting interaction | T508R

Variants of: B2
Settings: with hsfy1_human HSFY1, Q96LI6

effect of a mutation on the interaction | Variant
disrupting interaction | R47L

Variants of: B2
Settings: with hsfy1_human HSFY1, Q96LI6
Remark: another data set of the same source

effect of a mutation on the interaction | Variant
disrupting interaction | G63S

Variants of: B3
Settings: with KRT40, Q6A162

effect of a mutation on the interaction | Variant
disrupting interaction | L484P

Variants of: B3
Settings: with KRT40, Q6A162
Remark: another data set of the same source

effect of a mutation on the interaction | Variant
disrupting interaction | I477N

Variants of: B4
Settings: with 4et_human EIF4ENIF1, Q9NRA8

effect of a mutation on the interaction | Variant
disrupting interaction | A394S

Variants of: B4
Settings: with 4et_human EIF4ENIF1, Q9NRA8
Remark: another data set of the same source

effect of a mutation on the interaction | Variant
disrupting interaction | R221H

Variants of: B4
Settings: with 4et_human EIF4ENIF1, Q9NRA8
Remark: another data set of the same source

effect of a mutation on the interaction | Variant
disrupting interaction | P77T
